Laboratory results as given in IntAct's records for PubMed 36931259.

B1: 14-3-3 protein sigma (Homo sapiens), P31947 (parent)
chain: MERASLIQKAKLAEQAERYEDMAAFMKGAVEKGEELSCEERNLLSVAYKNVVGGQRAAWRVLSSIEQKSNEEGSEEKGPEVREYREKVETELQGVCDTVLGLLDSHLIKEAGDAESRVFYLKMKGDYYRYLAEVATGDDKKRIIDSARSAYQEAMDISKKEMPPTNPIRLGLALNFSVFHYEIANSPEEAISLAKTTFDEAMADLHTLSEDSYKDSTLIMQLLRDNLTLWTADNAGEEGGEAPQEPQS
partner: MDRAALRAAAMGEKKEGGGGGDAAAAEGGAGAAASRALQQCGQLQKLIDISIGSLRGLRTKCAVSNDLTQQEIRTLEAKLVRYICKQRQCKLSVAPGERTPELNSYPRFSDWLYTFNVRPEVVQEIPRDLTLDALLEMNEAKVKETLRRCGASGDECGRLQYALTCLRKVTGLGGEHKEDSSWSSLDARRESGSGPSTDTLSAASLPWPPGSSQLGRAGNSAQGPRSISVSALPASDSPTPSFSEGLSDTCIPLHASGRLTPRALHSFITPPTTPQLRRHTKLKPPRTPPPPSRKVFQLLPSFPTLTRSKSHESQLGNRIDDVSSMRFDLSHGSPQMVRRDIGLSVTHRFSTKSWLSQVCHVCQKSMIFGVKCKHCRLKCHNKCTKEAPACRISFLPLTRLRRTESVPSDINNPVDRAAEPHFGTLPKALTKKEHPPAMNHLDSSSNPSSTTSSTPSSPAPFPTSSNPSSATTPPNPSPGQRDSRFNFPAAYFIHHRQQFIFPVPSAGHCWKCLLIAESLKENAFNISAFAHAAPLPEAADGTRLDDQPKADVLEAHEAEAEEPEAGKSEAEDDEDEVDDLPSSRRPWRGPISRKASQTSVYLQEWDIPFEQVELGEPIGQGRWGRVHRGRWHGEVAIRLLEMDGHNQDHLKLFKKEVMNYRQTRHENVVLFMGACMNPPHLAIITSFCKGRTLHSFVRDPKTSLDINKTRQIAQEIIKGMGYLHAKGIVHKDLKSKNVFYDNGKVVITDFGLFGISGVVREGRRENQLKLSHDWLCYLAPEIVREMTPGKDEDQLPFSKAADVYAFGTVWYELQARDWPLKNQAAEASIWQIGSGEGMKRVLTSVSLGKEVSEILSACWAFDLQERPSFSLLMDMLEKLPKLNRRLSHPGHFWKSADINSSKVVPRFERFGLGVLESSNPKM
B2: 14-3-3 protein sigma (Homo sapiens), P31947 (parent)
chain: B1 chain
partner: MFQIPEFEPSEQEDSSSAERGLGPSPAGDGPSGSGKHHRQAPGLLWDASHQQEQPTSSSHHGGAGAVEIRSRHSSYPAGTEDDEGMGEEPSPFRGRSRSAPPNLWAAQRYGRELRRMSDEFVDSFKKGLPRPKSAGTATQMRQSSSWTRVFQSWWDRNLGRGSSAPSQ
B3: 14-3-3 protein sigma (Homo sapiens), P31947 (parent)
chain: B1 chain
partner: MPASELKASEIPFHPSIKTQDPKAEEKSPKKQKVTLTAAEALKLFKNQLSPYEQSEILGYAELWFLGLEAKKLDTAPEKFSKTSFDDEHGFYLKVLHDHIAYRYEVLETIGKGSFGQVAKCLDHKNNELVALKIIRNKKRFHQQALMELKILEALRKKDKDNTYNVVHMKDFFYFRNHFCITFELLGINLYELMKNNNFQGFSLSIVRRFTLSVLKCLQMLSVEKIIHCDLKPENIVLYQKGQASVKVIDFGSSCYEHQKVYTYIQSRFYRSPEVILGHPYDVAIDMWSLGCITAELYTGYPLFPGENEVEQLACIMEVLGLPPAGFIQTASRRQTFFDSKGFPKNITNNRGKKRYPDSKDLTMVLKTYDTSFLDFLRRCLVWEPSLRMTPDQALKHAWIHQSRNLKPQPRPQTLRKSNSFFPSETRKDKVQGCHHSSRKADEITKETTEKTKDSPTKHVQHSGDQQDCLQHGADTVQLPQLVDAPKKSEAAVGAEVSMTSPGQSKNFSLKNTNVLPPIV
B4: 14-3-3 protein sigma (Homo sapiens), P31947 (parent)
chain: B1 chain
partner: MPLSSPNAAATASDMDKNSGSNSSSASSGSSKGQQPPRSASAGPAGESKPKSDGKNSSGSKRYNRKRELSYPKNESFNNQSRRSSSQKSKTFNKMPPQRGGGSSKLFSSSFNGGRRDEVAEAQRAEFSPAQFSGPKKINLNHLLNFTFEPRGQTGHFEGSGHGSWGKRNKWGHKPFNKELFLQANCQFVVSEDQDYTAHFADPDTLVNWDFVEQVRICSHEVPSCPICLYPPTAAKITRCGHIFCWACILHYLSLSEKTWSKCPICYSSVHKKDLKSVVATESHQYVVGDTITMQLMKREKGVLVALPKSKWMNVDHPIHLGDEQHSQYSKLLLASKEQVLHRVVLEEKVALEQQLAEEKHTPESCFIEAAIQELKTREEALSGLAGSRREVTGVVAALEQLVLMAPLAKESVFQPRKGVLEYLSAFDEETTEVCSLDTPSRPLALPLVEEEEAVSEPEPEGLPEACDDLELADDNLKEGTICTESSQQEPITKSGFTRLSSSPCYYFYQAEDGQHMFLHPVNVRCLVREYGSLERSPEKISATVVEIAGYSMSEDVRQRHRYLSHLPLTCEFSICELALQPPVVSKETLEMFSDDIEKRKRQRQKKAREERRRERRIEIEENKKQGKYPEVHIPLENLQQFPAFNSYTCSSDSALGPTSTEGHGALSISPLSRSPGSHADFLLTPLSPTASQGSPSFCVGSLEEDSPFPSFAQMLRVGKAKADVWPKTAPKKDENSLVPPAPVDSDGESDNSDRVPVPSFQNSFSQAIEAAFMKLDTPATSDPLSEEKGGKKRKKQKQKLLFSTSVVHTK
B5: 14-3-3 protein sigma (Homo sapiens), P31947 (parent)
chain: B1 chain
partner: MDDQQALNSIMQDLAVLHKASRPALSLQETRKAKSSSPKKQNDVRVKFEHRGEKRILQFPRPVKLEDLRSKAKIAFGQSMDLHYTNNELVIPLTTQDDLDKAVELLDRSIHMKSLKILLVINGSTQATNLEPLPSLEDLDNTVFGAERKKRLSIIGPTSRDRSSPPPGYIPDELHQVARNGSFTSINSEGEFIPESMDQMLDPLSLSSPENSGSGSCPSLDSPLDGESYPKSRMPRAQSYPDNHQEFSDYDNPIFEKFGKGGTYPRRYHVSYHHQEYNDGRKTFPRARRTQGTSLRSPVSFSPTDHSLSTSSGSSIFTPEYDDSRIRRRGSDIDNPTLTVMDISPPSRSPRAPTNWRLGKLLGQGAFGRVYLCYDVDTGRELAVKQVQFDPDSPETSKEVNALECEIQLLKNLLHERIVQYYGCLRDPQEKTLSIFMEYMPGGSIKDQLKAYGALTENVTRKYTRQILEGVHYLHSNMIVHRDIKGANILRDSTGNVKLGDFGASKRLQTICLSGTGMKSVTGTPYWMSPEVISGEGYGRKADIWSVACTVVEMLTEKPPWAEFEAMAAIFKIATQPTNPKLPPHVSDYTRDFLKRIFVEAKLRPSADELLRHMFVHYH

Variants of: B1
Settings: with ksr1_human KSR1, Q8IVT5

Variant | effect of a mutation on the interaction
K49E;R56E;V178D | decreasing interaction strength

Variants of: B2
Settings: with bad_human BAD

Variant | effect of a mutation on the interaction
K49E;R56E;V178D | decreasing interaction strength

Variants of: B3
Settings: with dyrk4_human DYRK4, Q9NR20

Variant | effect of a mutation on the interaction
K49E;R56E;V178D | decreasing interaction strength

Variants of: B4
Settings: with rnf10_human RNF10, Q8N5U6

Variant | effect of a mutation on the interaction
K49E;R56E;V178D | decreasing interaction strength

Variants of: B5
Settings: with m3k2_human MAP3K2, Q9Y2U5

Variant | effect of a mutation on the interaction
K49E;R56E;V178D | decreasing interaction strength
